{"source": "the supplement of paper PMC9112550", "about": "“Optimization of the antimicrobial peptide Bac7 by deep mutational scanning” (BMC Biology, 2022);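 further: peptides expressed intracellularly from a pBAD plasmid library in pooled LB shake-flask culture, induced with 0.3% L-arabinose, DNA abundance read by NGS, three biological replicates, DESeq2 with apeglm shrinkage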", "data": [{"system": "Escherichia coli TOP10", "test": "shrunken log2 fold change of peptide-encoding DNA abundance (4.5 h post-induction vs induction); higher = less antimicrobial activity (less host growth inhibition)", "details": "time post-induction: 4.5 h; library: site-saturation at positions 5, 18, 19, 20", "values": [{"sequence": "RRIRNRPPRLPRPRPRPFCWPRP", "shrunken log2 fold change": 0.0104}, {"sequence": "RRIRFRPPRLPRPRPRPGIWPRP", "shrunken log2 fold change": 0.125}, {"sequence": "RRIRPRPPRLPRPRPRPCHIPRP", "shrunken log2 fold change": -0.821}, {"sequence": "RRIRDRPPRLPRPRPRPDSNPRP", "shrunken log2 fold change": 0.205}, {"sequence": "RRIRMRPPRLPRPRPRPCWVPRP", "shrunken log2 fold change": 0.827}, {"sequence": "RRIRTRPPRLPRPRPRPLQDPRP", "shrunken log2 fold change": 0.00698}, {"sequence": "RRIRMRPPRLPRPRPRPNDIPRP", "shrunken log2 fold change": -0.0213}, {"sequence": "RRIRARPPRLPRPRPRPWYTPRP", "shrunken log2 fold change": -0.514}, {"sequence": "RRIRFRPPRLPRPRPRPEKFPRP", "shrunken log2 fold change": 0.012}, {"sequence": "RRIRMRPPRLPRPRPRPAAFPRP", "shrunken log2 fold change": 0.503}, {"sequence": "RRIRARPPRLPRPRPRPEHDPRP", "shrunken log2 fold change": -0.0905}, {"sequence": "RRIRSRPPRLPRPRPRPQQRPRP", "shrunken log2 fold change": 0.153}, {"sequence": "RRIRDRPPRLPRPRPRPRHVPRP", "shrunken log2 fold change": 0.153}, {"sequence": "RRIRARPPRLPRPRPRPRYQPRP", "shrunken log2 fold change": -0.274}, {"sequence": "RRIRARPPRLPRPRPRPCQAPRP", "shrunken log2 fold change": 0.483}, {"sequence": "RRIRVRPPRLPRPRPRPIFWPRP", "shrunken log2 fold change": 0.00106}, {"sequence": "RRIRDRPPRLPRPRPRPAIKPRP", "shrunken log2 fold change": 0.235}, {"sequence": "RRIRTRPPRLPRPRPRPRLPPRP", "shrunken log2 fold change": 0.119}, {"sequence": "RRIRWRPPRLPRPRPRPPCRPRP", "shrunken log2 fold change": -0.0876}, {"sequence": "RRIRWRPPRLPRPRPRPNQEPRP", "shrunken log2 fold change": -0.119}, {"sequence": "RRIRGRPPRLPRPRPRPVCRPRP", "shrunken log2 fold change": 0.802}, {"sequence": "RRIRTRPPRLPRPRPRPCYHPRP", "shrunken log2 fold change": -0.637}, {"sequence": "RRIRRRPPRLPRPRPRPQNGPRP", "shrunken log2 fold change": -0.0551}, {"sequence": "RRIRYRPPRLPRPRPRPLYQPRP", "shrunken log2 fold change": -0.13}, {"sequence": "RRIRVRPPRLPRPRPRPDCPPRP", "shrunken log2 fold change": -0.104}, {"sequence": "RRIRDRPPRLPRPRPRPCFHPRP", "shrunken log2 fold change": -0.336}, {"sequence": "RRIRARPPRLPRPRPRPNGSPRP", "shrunken log2 fold change": 0.304}, {"sequence": "RRIRHRPPRLPRPRPRPRVVPRP", "shrunken log2 fold change": 0.072}, {"sequence": "RRIRARPPRLPRPRPRPCDPPRP", "shrunken log2 fold change": -0.106}, {"sequence": "RRIRSRPPRLPRPRPRPMKCPRP", "shrunken log2 fold change": 0.235}, {"sequence": "RRIRSRPPRLPRPRPRPDYSPRP", "shrunken log2 fold change": -0.464}, {"sequence": "RRIRKRPPRLPRPRPRPYDRPRP", "shrunken log2 fold change": 0.192}, {"sequence": "RRIRIRPPRLPRPRPRPPTHPRP", "shrunken log2 fold change": -0.184}, {"sequence": "RRIRSRPPRLPRPRPRPPFFPRP", "shrunken log2 fold change": 0.143}, {"sequence": "RRIRNRPPRLPRPRPRPAQTPRP", "shrunken log2 fold change": -0.0137}, {"sequence": "RRIRSRPPRLPRPRPRPKFNPRP", "shrunken log2 fold change": -0.573}, {"sequence": "RRIRWRPPRLPRPRPRPKSIPRP", "shrunken log2 fold change": -0.017}, {"sequence": "RRIRPRPPRLPRPRPRPCRCPRP", "shrunken log2 fold change": 0.00981}, {"sequence": "RRIRKRPPRLPRPRPRPFNRPRP", "shrunken log2 fold change": -0.203}, {"sequence": "RRIRTRPPRLPRPRPRPNGMPRP", "shrunken log2 fold change": -0.245}, {"sequence": "RRIRYRPPRLPRPRPRPSWEPRP", "shrunken log2 fold change": -0.153}, {"sequence": "RRIRVRPPRLPRPRPRPFWLPRP", "shrunken log2 fold change": 0.234}, {"sequence": "RRIRQRPPRLPRPRPRPWWMPRP", "shrunken log2 fold change": -0.0322}, {"sequence": "RRIRNRPPRLPRPRPRPCPSPRP", "shrunken log2 fold change": -0.0371}, {"sequence": "RRIRVRPPRLPRPRPRPPKFPRP", "shrunken log2 fold change": 0.133}, {"sequence": "RRIRARPPRLPRPRPRPGERPRP", "shrunken log2 fold change": 0.56}, {"sequence": "RRIRKRPPRLPRPRPRPDNDPRP", "shrunken log2 fold change": -0.00188}, {"sequence": "RRIRSRPPRLPRPRPRPFNRPRP", "shrunken log2 fold change": -0.363}, {"sequence": "RRIRNRPPRLPRPRPRPRICPRP", "shrunken log2 fold change": 0.101}, {"sequence": "RRIRLRPPRLPRPRPRPYCVPRP", "shrunken log2 fold change": -0.622}, {"sequence": "RRIRGRPPRLPRPRPRPIREPRP", "shrunken log2 fold change": -0.0123}, {"sequence": "RRIRNRPPRLPRPRPRPCAYPRP", "shrunken log2 fold change": -0.139}, {"sequence": "RRIRTRPPRLPRPRPRPMDMPRP", "shrunken log2 fold change": 0.0382}, {"sequence": "RRIRERPPRLPRPRPRPMYAPRP", "shrunken log2 fold change": -0.246}, {"sequence": "RRIRYRPPRLPRPRPRPQVCPRP", "shrunken log2 fold change": -0.00133}, {"sequence": "RRIRWRPPRLPRPRPRPRTEPRP", "shrunken log2 fold change": 0.225}, {"sequence": "RRIRYRPPRLPRPRPRPWGVPRP", "shrunken log2 fold change": -0.242}, {"sequence": "RRIRIRPPRLPRPRPRPQLCPRP", "shrunken log2 fold change": -0.222}, {"sequence": "RRIRSRPPRLPRPRPRPMYQPRP", "shrunken log2 fold change": -0.594}, {"sequence": "RRIRRRPPRLPRPRPRPFRWPRP", "shrunken log2 fold change": 0.279}]}]}
